Assay results as given in paper PMC12079402 (Protein Science : A Publication of the Protein Society, 2025).

T1: ANAC046 intrinsically disordered region, ANAC046(172-338) (Arabidopsis thaliana, UniProt Q9SQQ6 172-338)
T1 sequence (looked up): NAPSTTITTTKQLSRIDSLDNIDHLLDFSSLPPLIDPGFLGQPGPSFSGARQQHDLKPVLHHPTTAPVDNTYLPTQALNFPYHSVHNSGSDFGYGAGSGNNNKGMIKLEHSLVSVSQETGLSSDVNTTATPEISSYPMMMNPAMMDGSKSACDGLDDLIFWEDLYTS

B1: ACID domain of MEDIATOR subunit 25 (MED25), MED25-ACID(532-680) (domain or fragment, Arabidopsis, UniProt Q7XYY2 532-680, looked up)
chain: SNSSAPNMQLSQPSSGAMQTSQSKYVKVWEGNLSGQRQGQPVLITRLEGYRSASASDSLAANWPPTMQIVRLISQDHMNNKQYVGKADFLVFRAMSQHGFLGQLQDKKLCAVIQLPSQTLLLSVSDKACRLIGMLFPGDMVVFKPQIPN
B2: TAZ1 domain of HAC1, HAC1-TAZ1(626-724) (domain or fragment, Arabidopsis, UniProt Q9C5X9 626-724, looked up)
chain: GNGNRDPRFKNQQKWLLFLRHARHCKAPEGKCPDRNCVTVQKLWKHMDSCAAPQCSYPRCLPTKTLINHHRSCKEPNCPVCIPVKAYLQQQANARSLAR
B3: KIX domain of HAC1, HAC1-KIX(43-134) (domain or fragment, Arabidopsis, UniProt Q9C5X9 43-134, looked up)
chain: GPSRVSPVDNDILKLRQAMRIRIFNILQQKQPSPADEASKAKYMDVARRLEEGLFKIANTKEDYVNPSTLEPRLASLIKGRQLNNYNQRHAN
B4: RST domain of Radical-Induced Cell Death1 (RCD1), RCD1-RST(499-572) (domain or fragment, Arabidopsis, UniProt Q8RY59 499-572, looked up)
chain: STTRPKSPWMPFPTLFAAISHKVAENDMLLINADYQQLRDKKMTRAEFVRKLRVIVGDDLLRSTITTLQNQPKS
B5: TAZ2 domain of HAC1, HAC1-TAZ2(1574-1697) (domain or fragment, Arabidopsis, UniProt Q9C5X9 1574-1697, looked up)
chain: NAQNKEARQLRVLQLRKMLDLLVHASQCRSAHCQYPNCRKVKGLFRHGINCKVRASGGCVLCKKMWYLLQLHARACKESECHVPRCRDLKEHLRRLQQQSDSRRRAAVMEMMRQRAAEVAGGSG
B6: ANAC046(172-222, S175W), fragment containing AD1/M1-2 (domain or fragment, Arabidopsis thaliana, UniProt Q9SQQ6 172-222, looked up)
chain: NAPWTTITTTKQLSRIDSLDNIDHLLDFSSLPPLIDPGFLGQPGPSFSGAR
B7: ANAC046(300-338), fragment containing AD2/M5 with its context (domain or fragment, Arabidopsis thaliana, UniProt Q9SQQ6 300-338, looked up)
chain: ATPEISSYPMMMNPAMMDGSKSACDGLDDLIFWEDLYTS

Legend:
[1] = target: T1, ANAC046 intrinsically disordered …; assay: NMR titration
[2] = target: T1, ANAC046 intrinsically disordered …; assay: ITC
[3] = target: B7; assay: ITC
[4] = target: T1, ANAC046 intrinsically disordered …; assay: ITC; remark: listed apart in the source
[5] = target: B2; assay: NMR titration
[6] = target: B4; assay: NMR titration
[7] = target: B2; assay: ITC
[8] = target: B4; assay: ITC

B1: binds [1].

In the case of B2, the “dH, site AD1/M1-2 (two-site fit)” value [2] is reported as -15.5 kcal/mol, the “dH, site AD2/M5 (two-site fit)” value [2] is reported as -5.98 kcal/mol and the dH [3] is reported as -5.98 kcal/mol. The “stoichiometry N” value [3] was 0.97.

B3: binds [1].

With B4 the Kd [4] was 0.2 µM and the dH [4] was -5.5 kcal/mol.

B5: binds [1].

With B6 the Kd [5] was 112 µM and the Kd [6] was 148 µM.

With B7 the Kd [7] was 6 µM, the Kd [8] was 0.12 µM and the dH [8] was -7.41 kcal/mol. The “stoichiometry N” value [8] was 0.8.
